Source: the RNAGym collection of RNA variant scans (doi:10.1073/pnas.2313332121)
Fewer inactive variants are shown than the library holds.

B1: TPR 5TU (parent)
chain: GGAUCUUCUCGAUCUAACAAAAAAGACAAAUCUGCCACAAAGCUUGAGAGCAUCUUCGGAUGCAGAGGCGGCAGCCUUCGGUGGCGCGAUAGCGCCAACGUUCUCAACUAUGACACGCAAAACGCGUGCUCCGUUGAAUGGAGUUUAUCAUG

Variants of: B1
Test: polymerase ribozyme fitness, log enrichment relative to wild type (log ratio); higher = more active; in vitro selection for triplet polymerase activity
Summary of the method: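 One round of in vitro selection, in triplicate, was applied to PCR-built, transcribed mutant libraries of each subunit of a heterodimeric triplet polymerase ribozyme. The steps were annealing with a biotinylated primer, partner subunit and triplets, incubation frozen at −7 °C, gel excision of extended constructs, streptavidin-bead capture and RT-PCR. Fitness is the logarithm, base 2, of genotype enrichment over wild-type enrichment from inverse-variance-weighted replicate averages of Illumina-sequenced inputs and outputs, keeping genotypes with ≥10 input reads and ≥1 read per output.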

Row | Variant | polymerase ribozyme fitness (log ratio)
1 | C57U G59C C69G C96A | -1.45
2 | G58C U77G C87G G152A | ≤ -4.2
3 | U61A G65C U82G C118A A138U U151A | ≤ -4.2
4 | G59C U102G | -2.05
5 | U61A C105G A121U | ≤ -4.2
6 | G59A U90A A98G C103A | ≤ -4.2
7 | G58C U82A | 0.644
8 | A60G G83C | -0.826
9 | A60G G83A | -1.4
10 | U61A A91C | ≤ -4.2
11 | G58A G83U A98U C103U | -1.15
12 | G58A A73U | -1.65
13 | C57U G92U | -0.682
14 | G59A C85G G100A U134G U144G A150C | ≤ -4.2
15 | G58A G84A U104G | -0.568
16 | G59C A115C | -0.396
17 | A60U G84C C123G | -3.24
18 | U61G C72U | -1.45
19 | G58A A115C U135C G152U | ≤ -4.2
20 | C57U G84A C93U | -2.9
21 | G59C G83A C125A | -1.12
22 | G59C U111G | ≤ -4.2
23 | G62A A115G A120G | -0.97
24 | U61A C99U | -2.69

Row | Variant | polymerase ribozyme fitness (log ratio)
25 | G58A U82G C96A A142G A147G | -3.38
26 | C57U C85U | 0.073
27 | C57U C85A | -1.63
28 | G62A A120C | -1.04
29 | G59C G124U | -0.228
30 | G58A C69A U82G A120U U134C | -1.34
31 | G58U U148A | -3.05
32 | G62A A73C C87G | ≤ -4.2
33 | C57U G94U C99A | -1.79
34 | C57U C116U U139C | ≤ -4.2
35 | C57U U151G | -3.63
36 | G58A G83A | -0.976
37 | U61A U102C U111G A115G C123A U139G | ≤ -4.2
38 | G59U A64C G71A G117U | ≤ -4.2
39 | U61G C105U A115G A147C G152U | ≤ -4.2
40 | U61A C69A G86U G117C A119G | -3.92
41 | U61G | -1.25
42 | U61C | -1.79
43 | U61A | -1.18
44 | U61C C85U | -2.66
45 | U61A C85U A89U C118A C149U | -3.61
46 | G59U C76G A110U G124C A137G | ≤ -4.2
47 | G58C G124C | -0.411
48 | C57U G94U U127C C132U | -3.37

Row | Variant | polymerase ribozyme fitness (log ratio)
49 | A60G U104G | 0.24
50 | C57U G59C G83C | -1.17
51 | C57U G59A G67A C93G | ≤ -4.2
52 | G59C C76A C85G C118U | -2.89
53 | A60C G84A A91G C116U | -4.11
54 | G58C U134G A150U | -3.62
55 | G58C G59C | 0.523
56 | A60C G67U C76A C96U A107G C125U | ≤ -4.2
57 | U61A G62A | -1.48
58 | U61A U109G | -2.11
59 | G59U C87A A97U | ≤ -4.2
60 | G59C C79A C93U | ≤ -4.2
61 | C57U G81C C95A A122C | -0.59
62 | G59U G88U G94U U102G A147G | ≤ -4.2
63 | G59C A98U | 0.166
64 | C57U G84U | -2.27
65 | G59A A106C A113C C118G | ≤ -4.2
66 | A60U C116U G141A | -0.772
67 | G59A U77C | -3.69
68 | A60C G83A C85U U101G | -3.16
69 | A60U C129G | -3.43
70 | A60U U61C | ≤ -4.2
71 | A60G C93U C95A U145A | -1.82
72 | G58A C96G | -0.616

Row | Variant | polymerase ribozyme fitness (log ratio)
73 | G59U C95U G133U | ≤ -4.2
74 | G59U C76U G83U U102G C123A | ≤ -4.2
75 | G59C A60C C99U A119C | ≤ -4.2
76 | A60G U101A G141U A147C | -4.13
77 | G59C C85A C95U A137C | ≤ -4.2
78 | A60U C99A G140U | ≤ -4.2
79 | C57U U61G C76A | ≤ -4.2
80 | C57U G68A | -3.56
81 | G58A G84A A142U G152A | -2.68
82 | C57U C87A | -4.12
83 | G58U G84U A113G U139G | -2.95
84 | U61C G81A | -2.36
85 | C57U G58A U104G C105U | -3.63
86 | G59C G65C G136U | ≤ -4.2
87 | A60G C69U A122C U135C | -3.94
88 | G59A U61A C79U G83A A121C | ≤ -4.2
89 | G58A U61A | -0.894
90 | C57U U82G | 0.0517
91 | U61A C118G | -1.89
92 | G59C C85A | -0.943
93 | C57U G71U | -1.94
94 | G59C A89G U139C U144C | -3.75
95 | G59U C114U | -1.62
96 | A60C C85G | -3.9

Row | Variant | polymerase ribozyme fitness (log ratio)
97 | A60C C85A | -2.62
98 | G59A A66C G84A A89U | ≤ -4.2
99 | G59A A97G | -0.633
100 | G58C G65C A66C U77G U102A C132U | ≤ -4.2
101 | G59A U61A C69A A142C | -3.27
102 | G59C C95U G136U | -2.05
103 | G58A C87U A89U A106U | -2.54
104 | G59A G92A G128A | -4.02
105 | G58A A89U G94U | -3.19
106 | U61A A98U | -1.28
107 | U61A A66C G80A U82G | ≤ -4.2
108 | U61A A64C G68U G86C | ≤ -4.2
109 | G58C A107C U130G A137G A147G | ≤ -4.2
110 | G58A A60C G74A C85G C116G C123U C149G | ≤ -4.2
111 | G59C C69A | -1.79
112 | C57U C87U C93A A107C | ≤ -4.2
113 | G58C A66G | -3.76
114 | G59C A97U A106G C118G G124A U145G | -2.18
115 | C57U C95U U101C | -0.863
116 | A60G C93U | -1.09
117 | A60G C93A | -2.81
118 | A60C C99A A113G U127G | ≤ -4.2
119 | G59U C93U | -3.08
120 | C57U G58C G86A U102A C116A | -2.47

Row | Variant | polymerase ribozyme fitness (log ratio)
121 | U61A U146C | -0.489
122 | A60C C85U A119C G124A | -1.25
123 | G59U C79A G86A A89G A122G G141C | ≤ -4.2
124 | G59U C96U A98U | -0.711
125 | G59A G83C | -0.954
126 | G58A G84C | -1.94
127 | G59U C132A | -2.09
128 | G59A A60G U134C | -0.132
129 | A60G C63U G94A C114U | -2.5
130 | G58A A98G | 0.621
131 | G59A A138C U146C A150G | ≤ -4.2
132 | G58C G67U A91U A107G C108U C116G C125U C129U | ≤ -4.2
133 | U61G C75U G92A C149A | ≤ -4.2
134 | G58C C93A | -2.61
135 | C57U G68A C75G C76G C87A A98U U145C | ≤ -4.2
136 | U61A C149U | -1.63
137 | G58C C116G | 0.494
138 | G58C C116U | 0.354
139 | A60C G71U G92C C108G G117A G124U A137C | -4.08
140 | G59A U134A | -2.02
141 | A60G U90C C93A A150U | -0.698
142 | U61A G86A | -2.67
143 | G58C A142U U146A | -1.03
144 | A60U C69A A89U | -0.419

Row | Variant | polymerase ribozyme fitness (log ratio)
145 | G59C U139A | ≤ -4.2
146 | G58A C63U C93A C105A | -4.05
147 | G59C C95U A106G C116A | 0.288
148 | G59C G117A | 1.39
149 | U61G G117C A142C U146G | ≤ -4.2
150 | G58U C75G G81A G92U A142G U144A | ≤ -4.2
151 | G58A U146C | 0.448
152 | G58A G81A G86A C93U G112C C116U C149G | 1.13
153 | G59U C76G A91G A106C C114U C125U G128A G143U | ≤ -4.2
154 | U61G G124C | -3.25
155 | C57U G86U C96A U109A U146A | -2.45
156 | C57U G58C C79U | -1.86
157 | G58A G59U C87U G136A | 0.169
158 | G58U A66C U77G A91U C96G A97U | ≤ -4.2
159 | G58U A97G G112C C149A | ≤ -4.2
160 | G59U C69G C95U C116G | -1.81
161 | G59U G86A | -1.19
162 | G58A C76G C125U C132A G133C | ≤ -4.2
163 | G59U G80A C85A | -0.927
164 | G59U G86A G143U | -3.52
165 | G58C C75U C95U C99G U135C | ≤ -4.2
166 | G58A A73G C85G A98C | -1.02
167 | G58U U61A U135A | -1.67
